Measurements reported in article PMC10925046, “TERRA-LSD1 phase separation promotes R-loop formation for telomere maintenance in ALT cancer cells”.

Columns and labels:
LSD1 deltaIDR 3KE;CoREST = LSD1 deltaIDR 3KE;CoREST (human;human?, UniProt O60341;Q9UKL0 171-852;289-485, K355E;K357E;K359E|); assay: pull-down; EMSA: 4 C, 5 min, 0.75% agarose in 1x THE pH 7.4 (34 mM Tris, 66 mM HEPES, 0.1 mM EDTA) + 0.1 M K acetate, RNA folded in 10 mM Tris pH 7.4, 100 mM KCl, 1 mM TCE
LSD1 deltaIDR;CoREST = LSD1 deltaIDR;CoREST (human;human?, UniProt O60341;Q9UKL0 171-852;289-485, |); assay: as above

## UUAGGGUUAGGGUUAGGGUUAGGGUUAGGGUUAGGGUUAGGGUUAGGG (structured_RNA) [biotin-TERRA (UUAGGG)8]
LSD1 deltaIDR 3KE;CoREST
  binding result: no binding
LSD1 deltaIDR;CoREST
  binding result: binds
